Data reported in patent US20220242950A1 (CANTARGIA, published 2022).
Where two headings read alike, the source gives them in different places.

T1: rat IL1RAP (rat (Rattus norvegicus), UniProt Q63621 21-367, limits assumed)
T1 construct: also called rnIL1RAP
T1 sequence (looked up): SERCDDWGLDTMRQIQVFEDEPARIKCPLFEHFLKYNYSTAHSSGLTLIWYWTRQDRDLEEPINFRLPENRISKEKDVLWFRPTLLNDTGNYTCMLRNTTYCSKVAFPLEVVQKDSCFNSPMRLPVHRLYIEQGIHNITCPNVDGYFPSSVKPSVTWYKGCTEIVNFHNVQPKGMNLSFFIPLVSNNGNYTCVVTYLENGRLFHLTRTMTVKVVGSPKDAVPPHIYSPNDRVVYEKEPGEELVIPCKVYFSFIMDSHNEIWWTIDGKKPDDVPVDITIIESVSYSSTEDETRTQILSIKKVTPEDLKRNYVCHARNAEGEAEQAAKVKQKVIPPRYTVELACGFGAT

T2: mouse IL1RAP (mouse (Mus musculus), UniProt Q61730 21-367, limits assumed)
T2 construct: Coated ortholog in the cross reactivity ELISA; also called mIL1RAP; murine IL1RAP
T2 sequence (looked up): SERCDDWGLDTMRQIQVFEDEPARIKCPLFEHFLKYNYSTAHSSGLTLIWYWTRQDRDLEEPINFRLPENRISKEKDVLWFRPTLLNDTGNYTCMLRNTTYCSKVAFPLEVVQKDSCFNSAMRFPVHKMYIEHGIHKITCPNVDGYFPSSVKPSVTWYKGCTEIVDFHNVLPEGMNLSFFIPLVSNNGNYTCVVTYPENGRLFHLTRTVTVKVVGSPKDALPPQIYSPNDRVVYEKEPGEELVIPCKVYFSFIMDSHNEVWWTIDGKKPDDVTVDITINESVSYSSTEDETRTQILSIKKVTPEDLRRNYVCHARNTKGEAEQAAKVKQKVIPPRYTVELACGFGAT

T3: human IL1RAP on the cell surface (human, UniProt Q9NPH3 21-570)
T3 sequence (looked up): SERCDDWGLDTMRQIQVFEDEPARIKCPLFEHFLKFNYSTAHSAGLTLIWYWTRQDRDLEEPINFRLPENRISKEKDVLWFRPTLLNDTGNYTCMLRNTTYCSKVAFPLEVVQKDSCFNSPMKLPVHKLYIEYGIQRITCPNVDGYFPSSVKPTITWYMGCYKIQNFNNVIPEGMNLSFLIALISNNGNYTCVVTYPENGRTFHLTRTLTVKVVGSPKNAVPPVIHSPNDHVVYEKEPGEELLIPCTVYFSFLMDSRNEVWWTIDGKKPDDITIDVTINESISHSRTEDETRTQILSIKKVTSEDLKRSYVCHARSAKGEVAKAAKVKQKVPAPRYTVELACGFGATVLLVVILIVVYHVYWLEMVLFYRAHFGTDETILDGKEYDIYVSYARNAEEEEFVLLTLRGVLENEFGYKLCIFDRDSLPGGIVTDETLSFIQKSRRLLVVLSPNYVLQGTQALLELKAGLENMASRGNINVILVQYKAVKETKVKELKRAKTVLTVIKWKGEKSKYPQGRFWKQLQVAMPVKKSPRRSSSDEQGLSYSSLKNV

T4: recombinant hIL1RAP Domain1+2+3 (aa21-367) (human, UniProt Q9NPH3 21-367)
T4 construct: Numbering on Uniprot Q9NPH3
T4 sequence (looked up): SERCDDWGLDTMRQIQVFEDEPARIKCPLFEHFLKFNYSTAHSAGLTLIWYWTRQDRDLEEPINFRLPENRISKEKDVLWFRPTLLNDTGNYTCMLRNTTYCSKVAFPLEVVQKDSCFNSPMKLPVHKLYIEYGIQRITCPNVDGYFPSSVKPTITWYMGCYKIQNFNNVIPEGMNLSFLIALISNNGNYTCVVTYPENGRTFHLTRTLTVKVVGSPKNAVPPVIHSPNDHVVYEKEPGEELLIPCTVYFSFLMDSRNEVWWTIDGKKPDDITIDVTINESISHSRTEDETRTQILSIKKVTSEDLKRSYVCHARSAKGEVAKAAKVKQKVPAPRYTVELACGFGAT

T5: recombinant mf IL1RAP aa21-367 (cynomolgus monkey (Macaca fascicularis), UniProt A0A2K5X5J5 21-367)
T5 construct: also called cynomolgus monkey IL1RAP; cyno IL1RAP
T5 sequence: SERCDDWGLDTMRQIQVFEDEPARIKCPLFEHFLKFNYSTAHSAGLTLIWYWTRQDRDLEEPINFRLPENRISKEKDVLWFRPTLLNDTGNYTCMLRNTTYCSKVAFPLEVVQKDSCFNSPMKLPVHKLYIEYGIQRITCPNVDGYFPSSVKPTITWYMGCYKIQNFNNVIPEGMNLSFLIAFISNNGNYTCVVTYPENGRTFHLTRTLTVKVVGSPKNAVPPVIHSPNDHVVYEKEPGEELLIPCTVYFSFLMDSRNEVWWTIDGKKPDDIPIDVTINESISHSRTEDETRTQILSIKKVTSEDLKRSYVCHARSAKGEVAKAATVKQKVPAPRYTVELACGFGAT


Columns and labels:
rat IL1RAP = molecular target: T1, rat IL1RAP; assay: indirect ELISA on coated IL1RAP, goat anti-human antibody-alkaline phosphatase, absorbance at 405 nm
Method: (§1) Microtiter plate wells were coated with IL1RAP orthologs (Mus musculus, Rattus norvegicus, Macaca fascicularis (Mf, synonymous to cynomolgus monkey), Oryctolagus cuniculus, Canis lupus familiaris, Sus scrofa) and incubated for 1 hour at 37° C. Plates were washed followed by a blocking step. After 1 hour incubation at room temperature on agitation, the plates were washed again. The antibody was diluted in fourfold serial dilution, ranging from 4000 ng/ml to 0.24 ng/ml, in ELISA blocking solution, and then transferred to the ELISA plate. Plates were incubated at 37° C. in 30 min on agitation and then washed. Goat Anti-Human antibody conjugated to Alkaline Phosphatase was added and incubated 30 min at 37° C. on agitation. The plates were washed followed by addition of substrate (4-Nitrophenyl phosphate disodium salt hexahydrate). The plates were thereafter incubated at room temperature on agitation and absorbance at 405 nm measured consecutively for 50 min. Absorbance at 0 min was taken as background signal.
(§2) The antibody is added in increasing concentrations and absorbance at 405 nm is used to detect binding to IL1RAP. As for chimeric 48D2, the humanized and de-immunized variants h48D2 VH5.GL:VL4 and h48D2 VH5.GL:VL5.GL were cross reactive to IL1RAP from cynomolgus monkey (cyno) and pig, but have no cross reactivity to IL1RAP from mouse, rat, rabbit or dog (FIG. 18 and Table 20).

mouse IL1RAP = molecular target: T2, mouse IL1RAP; assay: as above
Method: as §1, §2

[1] = molecular target: T3, human IL1RAP on the cell surface; assay: cell-based or functional assay
[2] = molecular target: T4, recombinant hIL1RAP Domain1+2+3 …; assay: bio-layer interferometry, human IL1RAP
Method: (§3) Affinity measurements were done on BLItz™ Label-Free Protein Analysis System from ForteBio, using the Basic Kinetics module in the BLItz Pro 1.3.1.3 software from Molecular Devices. Protein A biosensors were hydrated in blocking buffer (PBS, 0.5% BSA, 0.05% Tween 20, pH 7.4) for minimum 10 min at room temperature before coating. Protein A biosensors were coated with antibodies by dipping the biosensors in 200 μl of antibody solution (10 μg/ml in blocking buffer) for 30 min at room temperature. The sensors were then incubated in 200 μl blocking buffer for at least 10 min before use. […] The baseline was made in blocking buffer with a duration time of 30 sec. Association was made for 120 sec in hIL1RAP followed by 120 sec dissociation in blocking buffer.
KD values for affinity towards human IL1RAP are shown in Table 17 for the de-immunized h48D2 variants. Affinity was measured using bio-layer interferometry. […] See also Table 4 for a direct comparison of 48D2, humanized 48D2, and de-immunized h48D2.

[3] = molecular target: T4, recombinant hIL1RAP Domain1+2+3 …; assay: binding ELISA, coated recombinant hIL1RAP aa21-367
[4] = molecular target: T4, recombinant hIL1RAP Domain1+2+3 …; assay: BLI (BLItz), antibody on Protein A biosensor, hIL1RAP (21-367) in solution
Method: as §3
Affinity measurement results are shown in Table 4 for chimeric 48D2, as well as for humanized 48D2 variant VH5:VL4 (see Example 11) and for humanized and de-immunized 48D2 variant VH5.GL:VL4 (see Example 13). kₐ is the association rate constant, for characterization of the antibody binding to the target, kd is the dissociation rate constant, for characterization of the antibody dissociation from the target, and KD is the equilibrium dissociation constant between the antibody and its antigen, the ratio of kd/kₐ. […] The lower the KD value (lower concentration), the higher the affinity.

[5] = molecular target: T3, human IL1RAP on the cell surface; assay: cell-based or functional assay; remark: listed apart in the source
[6] = molecular target: T4, recombinant hIL1RAP Domain1+2+3 …; assay: bio-layer interferometry, human IL1RAP; remark: listed apart in the source
Method in brief: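 Antibodies at 10 μg/ml were loaded onto Protein A biosensors for 30 min at room temperature in PBS/0.5% BSA/0.05% Tween 20, pH 7.4. After a 30 sec baseline, association with hIL1RAP ran 120 sec, then 120 sec dissociation in buffer; KD from basic kinetics fitting.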

[7] = molecular target: T5, recombinant mf IL1RAP aa21-367; assay: binding ELISA, coated recombinant mf IL1RAP aa21-367

| Binder | binding result (rat IL1RAP) | binding result (mouse IL1RAP) | IC50 of IL-1α signaling (HEK-Blue assay) [1] [nM] | IC50 of IL-1β signaling (HEK-Blue assay) [1] [nM] | IC50 of IL-33 signaling (HEK-Blue assay) [1] [nM] | IC50 of IL-36α signaling (HEK-Blue assay) [1] [nM] | IC50 of IL-36β signaling (HEK-Blue assay) [1] [nM] | IC50 of IL-36γ signaling (HEK-Blue assay) [1] [nM] | Kd [2] [nM] | IC50 [3] [µg/mL] | Kd [4] [nM] | koff [4] [s⁻¹] | kon [4] [M⁻¹ s⁻¹] | IC50 of IL-1α signaling (HEK-Blue assay) [5] [nM] | IC50 of IL-33 signaling (HEK-Blue assay) [5] [nM] | IC50 of IL-36α signaling (HEK-Blue assay) [5] [nM] | IC50 of IL-36β signaling (HEK-Blue assay) [5] [nM] | IC50 of IL-36γ signaling (HEK-Blue assay) [5] [nM] | Kd [6] [nM] | IC50 [7] [µg/mL] |
| --- | --- | --- | --- | --- | --- | --- | --- | --- | --- | --- | --- | --- | --- | --- | --- | --- | --- | --- | --- | --- |
| h48D2 VH5.GL:VL5.GL (antibody, human IgG1, kappa, L234A L235A, Humanized and de-immunized; also called VL5.GL:VH5.GL) heavy: not shown light: DIQMTQSPSTLSASVGDRVTITCQASESISTALAWYQQKPGQPPKLLIYKASTLPSGVPSRFSGSGSGTEFTLTISDLESDDAATYYCQQGFSSGNVHNAFGGGTEVVVKRTVAAPSVFIFPPSDEQLKSGTASVVCLLNNFYPREAKVQWKVDNALQSGNSQESVTEQDSKDSTYSLSSTLTLSKADYEKHKVYACEVTHQGLSSPVTKSFNRGEC | no binding (tested: 4000 ng/mL) | no binding (tested: 4000 ng/mL) | 0.24 | 0.13 | 3.56 | 0.174 | 0.185 | 0.244 | 1.47 |  |  |  |  |  |  |  |  |  |  |  |
| h48D2 VH5:VL4 (antibody, human IgG1, kappa, L234A L235A, V domains shown, Humanized; also called VL4:VH5; humanized 48D2 variant VH5:VL4) VH: QEQLEESGGGLVKPGGTLSLTCTVSGPSLSHFDITWIRQAPGSGLEWIGTISPGVSTYYASWAKSRVTISVDTSLNTVSLKLSSVTAADTATYFCARGGVGSSWKAFDLWGPGTLVTISS VL: ELVMTQSPSSVSASVGDRVTITCQASESISTALAWYQQKPGKAPKLLIYKASTLPSGVPSRFSGSGSGTDFTLTINSLQPEDFATYYCQQGFSSGNVHNAFGGGTKVEIKR |  |  |  |  |  |  |  |  |  | 0.0258 | 2.74 | 0.000172 | 60200 | 6.47 | 2 | ~0.0025 | ~0.342 | 2.83 | 1.67 | 0.028 |
